From US20140256916A1 (Sanofi, published 2014)

Experiments:
[1] = biological target: T1, CA6, tumor-associated MUC1-sialoglycotope (human, UniProt P15941 24-1255, carries the CA6 sialoglycotope (sialylated glycan epitope); sites not stated); test: flow cytometry on WISH (CA6+) cells (method from Example 4)
T1 construct: whole, on cells; In the assays it is presented on WISH cells (CA6+); A2780 cells are CA6 negative; also called CA6 antigen; human CA6 tumor antigen

[2] = biological target: T1, CA6, tumor-associated …; test: flow cytometry (FACS) on WISH cells (CA6+), normalized fluorescence, without DOTA
[3] = biological target: T1, CA6, tumor-associated …; test: flow cytometry (FACS) on WISH cells (CA6+)
Procedure: The B-Fab 1153 is a DS6-based engineered antibody-like binding protein containing a both L1 and L2 linkers as (G45)₂ and not containing a C-terminal 6x-His tag. Since this protein was lacking a His tag the protein was purified by […], Kappa-select and SEC. The in vitro binding solution was prepared at 1.6 mg/ml in PBS and binding affinity was characterized using flow cytometry in the WISH CA6+ cell line (FIG. 3C and FIG. 3D).

[4] = biological target: T1, CA6, tumor-associated …; test: FACS binding assay (Free), Kd app; unconjugated (Free) B-Fab, not DOTA conjugate
[5] = biological target: T1, CA6, tumor-associated …; test: flow cytometry (FACS) on WISH cells (CA6+), normalized fluorescence, with DOTA
[6] = biological target: T1, CA6, tumor-associated …; test: FACS binding assay (DOTA Conjugate), Kd app
[7] = biological target: T1, CA6, tumor-associated …; test: FACS binding assay (Free), Kd app

T1 sequence (P15941 24-1255): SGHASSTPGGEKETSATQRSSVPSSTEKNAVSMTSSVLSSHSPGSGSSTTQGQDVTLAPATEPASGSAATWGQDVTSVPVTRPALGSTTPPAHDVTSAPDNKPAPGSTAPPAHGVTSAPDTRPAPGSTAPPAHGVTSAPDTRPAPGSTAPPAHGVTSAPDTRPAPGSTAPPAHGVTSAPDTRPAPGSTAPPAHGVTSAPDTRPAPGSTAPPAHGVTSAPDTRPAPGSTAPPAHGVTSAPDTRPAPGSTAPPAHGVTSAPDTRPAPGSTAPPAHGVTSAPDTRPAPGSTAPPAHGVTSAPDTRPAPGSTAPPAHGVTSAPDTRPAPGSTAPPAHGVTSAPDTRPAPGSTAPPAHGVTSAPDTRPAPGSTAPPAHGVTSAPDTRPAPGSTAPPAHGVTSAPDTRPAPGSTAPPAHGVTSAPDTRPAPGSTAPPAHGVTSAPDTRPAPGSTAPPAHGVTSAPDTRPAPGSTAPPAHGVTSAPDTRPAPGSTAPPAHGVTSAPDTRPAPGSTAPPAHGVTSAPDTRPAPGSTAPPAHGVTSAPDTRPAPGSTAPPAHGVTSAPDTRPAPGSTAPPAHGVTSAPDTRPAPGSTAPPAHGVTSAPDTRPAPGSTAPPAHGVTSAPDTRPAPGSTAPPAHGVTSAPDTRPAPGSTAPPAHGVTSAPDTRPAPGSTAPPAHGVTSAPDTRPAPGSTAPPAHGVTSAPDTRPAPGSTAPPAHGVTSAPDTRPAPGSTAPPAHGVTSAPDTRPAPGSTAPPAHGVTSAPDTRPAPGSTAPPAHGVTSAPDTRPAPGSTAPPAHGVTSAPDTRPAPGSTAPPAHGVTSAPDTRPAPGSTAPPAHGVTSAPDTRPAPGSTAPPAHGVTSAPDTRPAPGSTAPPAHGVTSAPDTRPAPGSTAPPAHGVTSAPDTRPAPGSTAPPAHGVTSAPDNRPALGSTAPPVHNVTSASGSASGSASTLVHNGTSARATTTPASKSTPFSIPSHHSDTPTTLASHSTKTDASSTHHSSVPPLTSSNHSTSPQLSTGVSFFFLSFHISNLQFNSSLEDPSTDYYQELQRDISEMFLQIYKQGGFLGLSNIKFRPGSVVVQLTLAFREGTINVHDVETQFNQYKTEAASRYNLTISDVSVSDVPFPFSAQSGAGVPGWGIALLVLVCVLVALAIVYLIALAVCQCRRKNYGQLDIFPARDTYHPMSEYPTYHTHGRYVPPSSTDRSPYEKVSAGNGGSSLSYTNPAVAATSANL

B1: B-Fab 1152 (Fab)
light: EIVLTQSPATMSASPGERVTITCSAHSSVSFMHWFQQKPGTSPKLWIYSTSSLASGVPARFGGSGSGTSYSLTISSMEAEDAATYYCQQRSSFPLTFGAGTKLELKGGGGSEIVLTQSPATMSASPGERVTITCSAHSSVSFMHWFQQKPGTSPKLWIYSTSSLASGVPARFGGSGSGTSYSLTISSMEAEDAATYYCQQRSSFPLTFGAGTKLELKRTVAAPSVFIFPPSDEQLKSGTASVVCLLNNFYPREAKVQWKVDNALQSGNSQESVTEQDSKDSTYSLSSTLTLSKADYEKHKVYACEVTHQGLSSPVTKSFNRGEC
heavy: EAQLVQSGAEVVKPGASVKMSCKASGYTFTSYNMHWVKQTPGQGLEWIGYIYPGNGATNYNQKFQGKATLTADPSSSTAYMQISSLTSEDSAVYFCARGDSVPFAYWGQGTLVTVSAGGGGSEAQLVQSGAEVVKPGASVKMSCKASGYTFTSYNMHWVKQTPGQGLEWIGYIYPGNGATNYNQKFQGKATLTADPSSSTAYMQISSLTSEDSAVYFCARGDSVPFAYWGQGTLVTVSAASTKGPSVFPLAPSSKSTSGGTAALGCLVKDYFPEPVTVSWNSGALTSGVHTFPAVLQSSGLYSLSSVVTVPSSSLGTQTYICNVNHKPSNTKVDKKVEPKSCDKTHT
notes: also called B-Fab G4S linker and C-terminal 6x-His tag; B-Fab DS6 based engineered antibody with GGGGS (G4S) linker and C-terminal 6x-His tag
Kd [1]: 88 nM

B2: DS6 B-Fab antibody-like binding protein (variant not named) (Fab)
light: EIVLTQSPATMSASPGERVTITCSAHSSVSFMHWFQQKPGTSPKLWIYSTSSLASGVPARFGGSGSGTSYSLTISSMEAEDAATYYCQQRSSFPLTFGAGTKLELKGGGGSGGGGSEIVLTQSPATMSASPGERVTITCSAHSSVSFMHWFQQKPGTSPKLWIYSTSSLASGVPARFGGSGSGTSYSLTISSMEAEDAATYYCQQRSSFPLTFGAGTKLELKRTVAAPSVFIFPPSDEQLKSGTASVVCLLNNFYPREAKVQWKVDNALQSGNSQESVTEQDSKDSTYSLSSTLTLSKADYEKHKVYACEVTHQGLSSPVTKSFNRGEC
heavy: EAQLVQSGAEVVKPGASVKMSCKASGYTFTSYNMHWVKQTPGQGLEWIGYIYPGNGATNYNQKFQGKATLTADPSSSTAYMQISSLTSEDSAVYFCARGDSVPFAYWGQGTLVTVSAGGGGSGGGGSEAQLVQSGAEVVKPGASVKMSCKASGYTFTSYNMHWVKQTPGQGLEWIGYIYPGNGATNYNQKFQGKATLTADPSSSTAYMQISSLTSEDSAVYFCARGDSVPFAYWGQGTLVTVSAASTKGPSVFPLAPSSKSTSGGTAALGCLVKDYFPEPVTVSWNSGALTSGVHTFPAVLQSSGLYSLSSVVTVPSSSLGTQTYICNVNHKPSNTKVDKKVEPKSCDKTHT
notes: also called B-Fab DS6 based engineered antibody
EC50 (read off the curve) [2]: ~2 nM | Kd [2]: 2.2 nM

B3: B-Fab 1153 (Fab)
light: EIVLTQSPATMSASPGERVTITCSAHSSVSFMHWFQQKPGTSPKLWIYSTSSLASGVPARFGGSGSGTSYSLTISSMEAEDAATYYCQQRSSFPLTFGAGTKLELKGGGGSGGGGSEIVLTQSPATMSASPGERVTITCSAHSSVSFMHWFQQKPGTSPKLWIYSTSSLASGVPARFGGSGSGTSYSLTISSMEAEDAATYYCQQRSSFPLTFGAGTKLELKRTVAAPSVFIFPPSDEQLKSGTASVVCLLNNFYPREAKVQWKVDNALQSGNSQESVTEQDSKDSTYSLSSTLTLSKADYEKHKVYACEVTHQGLSSPVTKSFNRGEC
heavy: EAQLVQSGAEVVKPGASVKMSCKASGYTFTSYNMHWVKQTPGQGLEWIGYIYPGNGATNYNQKFQGKATLTADPSSSTAYMQISSLTSEDSAVYFCARGDSVPFAYWGQGTLVTVSAGGGGSGGGGSEAQLVQSGAEVVKPGASVKMSCKASGYTFTSYNMHWVKQTPGQGLEWIGYIYPGNGATNYNQKFQGKATLTADPSSSTAYMQISSLTSEDSAVYFCARGDSVPFAYWGQGTLVTVSAASTKGPSVFPLAPSSKSTSGGTAALGCLVKDYFPEPVTVSWNSGALTSGVHTFPAVLQSSGLYSLSSVVTVPSSSLGTQTYICNVNHKPSNTKVDKKVEPKSCDKTHT
notes: also called B-Fab (G4S)2 linker; B-Fab (G4S)2 linker without C-terminal 6xHis tag
Kd [1]: 2.3 nM | EC50 (read off the curve) [3]: ~2 nM | Kd [4]: 4 nM

B4: DOTA-DS6 conjugated antibody (B-Fab with DOTA, variant not named) (Fab)
light: EIVLTQSPATMSASPGERVTITCSAHSSVSFMHWFQQKPGTSPKLWIYSTSSLASGVPARFGGSGSGTSYSLTISSMEAEDAATYYCQQRSSFPLTFGAGTKLELKGGGGSGGGGSEIVLTQSPATMSASPGERVTITCSAHSSVSFMHWFQQKPGTSPKLWIYSTSSLASGVPARFGGSGSGTSYSLTISSMEAEDAATYYCQQRSSFPLTFGAGTKLELKRTVAAPSVFIFPPSDEQLKSGTASVVCLLNNFYPREAKVQWKVDNALQSGNSQESVTEQDSKDSTYSLSSTLTLSKADYEKHKVYACEVTHQGLSSPVTKSFNRGEC
heavy: EAQLVQSGAEVVKPGASVKMSCKASGYTFTSYNMHWVKQTPGQGLEWIGYIYPGNGATNYNQKFQGKATLTADPSSSTAYMQISSLTSEDSAVYFCARGDSVPFAYWGQGTLVTVSAGGGGSGGGGSEAQLVQSGAEVVKPGASVKMSCKASGYTFTSYNMHWVKQTPGQGLEWIGYIYPGNGATNYNQKFQGKATLTADPSSSTAYMQISSLTSEDSAVYFCARGDSVPFAYWGQGTLVTVSAASTKGPSVFPLAPSSKSTSGGTAALGCLVKDYFPEPVTVSWNSGALTSGVHTFPAVLQSSGLYSLSSVVTVPSSSLGTQTYICNVNHKPSNTKVDKKVEPKSCDKTHT
modifications: DOTA chelator conjugated, sites not stated
EC50 (read off the curve) [5]: ~6 nM | Kd [5]: 6.6 nM

B5: B-Fab 1151 (Fab)
light: EIVLTQSPATMSASPGERVTITCSAHSSVSFMHWFQQKPGTSPKLWIYSTSSLASGVPARFGGSGSGTSYSLTISSMEAEDAATYYCQQRSSFPLTFGAGTKLELKGGGGSGGGGSEIVLTQSPATMSASPGERVTITCSAHSSVSFMHWFQQKPGTSPKLWIYSTSSLASGVPARFGGSGSGTSYSLTISSMEAEDAATYYCQQRSSFPLTFGAGTKLELKRTVAAPSVFIFPPSDEQLKSGTASVVCLLNNFYPREAKVQWKVDNALQSGNSQESVTEQDSKDSTYSLSSTLTLSKADYEKHKVYACEVTHQGLSSPVTKSFNRGEC
heavy: EAQLVQSGAEVVKPGASVKMSCKASGYTFTSYNMHWVKQTPGQGLEWIGYIYPGNGATNYNQKFQGKATLTADPSSSTAYMQISSLTSEDSAVYFCARGDSVPFAYWGQGTLVTVSAGGGGSGGGGSEAQLVQSGAEVVKPGASVKMSCKASGYTFTSYNMHWVKQTPGQGLEWIGYIYPGNGATNYNQKFQGKATLTADPSSSTAYMQISSLTSEDSAVYFCARGDSVPFAYWGQGTLVTVSAASTKGPSVFPLAPSSKSTSGGTAALGCLVKDYFPEPVTVSWNSGALTSGVHTFPAVLQSSGLYSLSSVVTVPSSSLGTQTYICNVNHKPSNTKVDKKVEPKSCDKTHT
notes: It also carries a C-terminal 6x-His tag; also called B-Fab (G4S)2 linker and C-terminal 6x-His tag
Kd [1]: 3.4 nM

B6: DOTA conjugate of B-Fab 1153 (Fab)
light: EIVLTQSPATMSASPGERVTITCSAHSSVSFMHWFQQKPGTSPKLWIYSTSSLASGVPARFGGSGSGTSYSLTISSMEAEDAATYYCQQRSSFPLTFGAGTKLELKGGGGSGGGGSEIVLTQSPATMSASPGERVTITCSAHSSVSFMHWFQQKPGTSPKLWIYSTSSLASGVPARFGGSGSGTSYSLTISSMEAEDAATYYCQQRSSFPLTFGAGTKLELKRTVAAPSVFIFPPSDEQLKSGTASVVCLLNNFYPREAKVQWKVDNALQSGNSQESVTEQDSKDSTYSLSSTLTLSKADYEKHKVYACEVTHQGLSSPVTKSFNRGEC
heavy: EAQLVQSGAEVVKPGASVKMSCKASGYTFTSYNMHWVKQTPGQGLEWIGYIYPGNGATNYNQKFQGKATLTADPSSSTAYMQISSLTSEDSAVYFCARGDSVPFAYWGQGTLVTVSAGGGGSGGGGSEAQLVQSGAEVVKPGASVKMSCKASGYTFTSYNMHWVKQTPGQGLEWIGYIYPGNGATNYNQKFQGKATLTADPSSSTAYMQISSLTSEDSAVYFCARGDSVPFAYWGQGTLVTVSAASTKGPSVFPLAPSSKSTSGGTAALGCLVKDYFPEPVTVSWNSGALTSGVHTFPAVLQSSGLYSLSSVVTVPSSSLGTQTYICNVNHKPSNTKVDKKVEPKSCDKTHT
modifications: DOTA chelator conjugated, sites not stated (1.5-2.5 DOTA/fragment)
notes: also called B-Fab (DOTA Conjugate)
Kd [6]: 7.4 nM

B7: anti-CA6 diabody of SEQ ID NO: 12 fused to a tag of SEQ ID NO: 14 (other)
chain: EIVLTQSPATMSASPGERVTITCSAHSSVSFMHWFQQKPGTSPKLWIYSTSSLASGVPARFGGSGSGTSYSLTISSMEAEDAATYYCQQRSSFPLTFGAGTKLELKGGGSGGGGEAQLVQSGAEVVKPGASVKMSCKASGYTFTSYNMHWVKQTPGQGLEWIGYIYPGNGATNYNQKFQGKATLTADPSSSTAYMQISSLTSEDSAVYFCARGDSVPFAYWGQGTLVTVSAGGCGGHHHHHH
Kd [7]: 10 nM

B8: DOTA conjugate of the anti-CA6 diabody (SEQ ID NO: 12 fused to SEQ ID NO: 14) (other)
chain: EIVLTQSPATMSASPGERVTITCSAHSSVSFMHWFQQKPGTSPKLWIYSTSSLASGVPARFGGSGSGTSYSLTISSMEAEDAATYYCQQRSSFPLTFGAGTKLELKGGGSGGGGEAQLVQSGAEVVKPGASVKMSCKASGYTFTSYNMHWVKQTPGQGLEWIGYIYPGNGATNYNQKFQGKATLTADPSSSTAYMQISSLTSEDSAVYFCARGDSVPFAYWGQGTLVTVSAGGCGGHHHHHH
modifications: DOTA chelator conjugated, sites not stated
notes: Homodimeric diabody conjugated to DOTA; also called Diabody (DOTA Conjugate)
Kd [6]: 7.5 nM
